Data: patent US20210388087A1 (Chugai, published 2021)

B1: CE115HA000 Y58S (antibody, human IgG1, kappa, L234A L235A, N297A, name in Kabat numbering)
heavy: QVQLVESGGGVVQPGRSLRLSCAASGFTFSNAWMHWVRQAPGKGLEWVAQIKAKSNNYATSYAESVKGRFTISRDDSKNSLYLQMNSLKTEDTAVYYCRYVHYGAYYGVDAWGQGTTVTVSSASTKGPSVFPLAPSSKSTSGGTAALGCLVKDYFPEPVTVSWNSGALTSGVHTFPAVLQSSGLYSLSSVVTVPSSSLGTQTYICNVNHKPSNTKVDKKVEPKSCDKTHTCPPCPAPEAAGGPSVFLFPPKPKDTLMISRTPEVTCVVVDVSHEDPEVKFNWYVDGVEVHNAKTKPREEQYASTYRVVSVLTVLHQDWLNGKEYKCKVSNKALPAPIEKTISKAKGQPREPQVYTLPPSRCELTKNQVSLSCAVKGFYPSDIAVEWESNGQPENNYKTTPPVLDSDGSFFLVSKLTVDKSRWQQGNVFSCSVMHEALHNHYTQKSLSLSPDYKDDDDK
chain: EPKSSDKTHTCPPCPAPELLGGPSVFLFPPKPKDTLMISRTPEVTCVVVDVSHEDPEVKFNWYVDGVEVHNAKTKPREEQYNSTYRVVSVLTVLHQDWLNGKEYKCKVSNKALPAPIEKTISKAKGQPREPQVCTLPPSRDELTKNQVSLWCLVKGFYPSDIAVEWESNGQPENNYKTTPPVLDSDGSFFLYSKLTVDKSRWQQGNVFSCSVMHEALHNRYTQKSLSLSP
light: DIVMTQSPLSLPVTPGEPASISCRSSQSLVHSNRNTYLHWYQQKPGQAPRLLIYKVSNRFSGVPDRFSGSGSGTDFTLKISRVEAEDVGVYYCGQGTQVPYTFGQGTKLEIKRTVAAPSVFIFPPSDEQLKSGTASVVCLLNNFYPREAKVQWKVDNALQSGNSQESVTEQDSKDSTYSLSSTLTLSKADYEKHKVYACEVTHQGLSSPVTKSFNRGEC
notes: one-arm antibody
B2: CE115HA000 Y59A (antibody, human IgG1, kappa, L234A L235A, N297A, name in Kabat numbering)
heavy: QVQLVESGGGVVQPGRSLRLSCAASGFTFSNAWMHWVRQAPGKGLEWVAQIKAKSNNYATYAAESVKGRFTISRDDSKNSLYLQMNSLKTEDTAVYYCRYVHYGAYYGVDAWGQGTTVTVSSASTKGPSVFPLAPSSKSTSGGTAALGCLVKDYFPEPVTVSWNSGALTSGVHTFPAVLQSSGLYSLSSVVTVPSSSLGTQTYICNVNHKPSNTKVDKKVEPKSCDKTHTCPPCPAPEAAGGPSVFLFPPKPKDTLMISRTPEVTCVVVDVSHEDPEVKFNWYVDGVEVHNAKTKPREEQYASTYRVVSVLTVLHQDWLNGKEYKCKVSNKALPAPIEKTISKAKGQPREPQVYTLPPSRCELTKNQVSLSCAVKGFYPSDIAVEWESNGQPENNYKTTPPVLDSDGSFFLVSKLTVDKSRWQQGNVFSCSVMHEALHNHYTQKSLSLSPDYKDDDDK
chain: EPKSSDKTHTCPPCPAPELLGGPSVFLFPPKPKDTLMISRTPEVTCVVVDVSHEDPEVKFNWYVDGVEVHNAKTKPREEQYNSTYRVVSVLTVLHQDWLNGKEYKCKVSNKALPAPIEKTISKAKGQPREPQVCTLPPSRDELTKNQVSLWCLVKGFYPSDIAVEWESNGQPENNYKTTPPVLDSDGSFFLYSKLTVDKSRWQQGNVFSCSVMHEALHNRYTQKSLSLSP
light: DIVMTQSPLSLPVTPGEPASISCRSSQSLVHSNRNTYLHWYQQKPGQAPRLLIYKVSNRFSGVPDRFSGSGSGTDFTLKISRVEAEDVGVYYCGQGTQVPYTFGQGTKLEIKRTVAAPSVFIFPPSDEQLKSGTASVVCLLNNFYPREAKVQWKVDNALQSGNSQESVTEQDSKDSTYSLSSTLTLSKADYEKHKVYACEVTHQGLSSPVTKSFNRGEC
notes: one-arm antibody
B3: CE115HA000 Y59D (antibody, human IgG1, kappa, L234A L235A, N297A, name in Kabat numbering)
heavy: QVQLVESGGGVVQPGRSLRLSCAASGFTFSNAWMHWVRQAPGKGLEWVAQIKAKSNNYATYDAESVKGRFTISRDDSKNSLYLQMNSLKTEDTAVYYCRYVHYGAYYGVDAWGQGTTVTVSSASTKGPSVFPLAPSSKSTSGGTAALGCLVKDYFPEPVTVSWNSGALTSGVHTFPAVLQSSGLYSLSSVVTVPSSSLGTQTYICNVNHKPSNTKVDKKVEPKSCDKTHTCPPCPAPEAAGGPSVFLFPPKPKDTLMISRTPEVTCVVVDVSHEDPEVKFNWYVDGVEVHNAKTKPREEQYASTYRVVSVLTVLHQDWLNGKEYKCKVSNKALPAPIEKTISKAKGQPREPQVYTLPPSRCELTKNQVSLSCAVKGFYPSDIAVEWESNGQPENNYKTTPPVLDSDGSFFLVSKLTVDKSRWQQGNVFSCSVMHEALHNHYTQKSLSLSPDYKDDDDK
chain: EPKSSDKTHTCPPCPAPELLGGPSVFLFPPKPKDTLMISRTPEVTCVVVDVSHEDPEVKFNWYVDGVEVHNAKTKPREEQYNSTYRVVSVLTVLHQDWLNGKEYKCKVSNKALPAPIEKTISKAKGQPREPQVCTLPPSRDELTKNQVSLWCLVKGFYPSDIAVEWESNGQPENNYKTTPPVLDSDGSFFLYSKLTVDKSRWQQGNVFSCSVMHEALHNRYTQKSLSLSP
light: DIVMTQSPLSLPVTPGEPASISCRSSQSLVHSNRNTYLHWYQQKPGQAPRLLIYKVSNRFSGVPDRFSGSGSGTDFTLKISRVEAEDVGVYYCGQGTQVPYTFGQGTKLEIKRTVAAPSVFIFPPSDEQLKSGTASVVCLLNNFYPREAKVQWKVDNALQSGNSQESVTEQDSKDSTYSLSSTLTLSKADYEKHKVYACEVTHQGLSSPVTKSFNRGEC
notes: one-arm antibody
B4: CE115HA000 Y59E (antibody, human IgG1, kappa, L234A L235A, N297A, name in Kabat numbering)
heavy: QVQLVESGGGVVQPGRSLRLSCAASGFTFSNAWMHWVRQAPGKGLEWVAQIKAKSNNYATYEAESVKGRFTISRDDSKNSLYLQMNSLKTEDTAVYYCRYVHYGAYYGVDAWGQGTTVTVSSASTKGPSVFPLAPSSKSTSGGTAALGCLVKDYFPEPVTVSWNSGALTSGVHTFPAVLQSSGLYSLSSVVTVPSSSLGTQTYICNVNHKPSNTKVDKKVEPKSCDKTHTCPPCPAPEAAGGPSVFLFPPKPKDTLMISRTPEVTCVVVDVSHEDPEVKFNWYVDGVEVHNAKTKPREEQYASTYRVVSVLTVLHQDWLNGKEYKCKVSNKALPAPIEKTISKAKGQPREPQVYTLPPSRCELTKNQVSLSCAVKGFYPSDIAVEWESNGQPENNYKTTPPVLDSDGSFFLVSKLTVDKSRWQQGNVFSCSVMHEALHNHYTQKSLSLSPDYKDDDDK
chain: EPKSSDKTHTCPPCPAPELLGGPSVFLFPPKPKDTLMISRTPEVTCVVVDVSHEDPEVKFNWYVDGVEVHNAKTKPREEQYNSTYRVVSVLTVLHQDWLNGKEYKCKVSNKALPAPIEKTISKAKGQPREPQVCTLPPSRDELTKNQVSLWCLVKGFYPSDIAVEWESNGQPENNYKTTPPVLDSDGSFFLYSKLTVDKSRWQQGNVFSCSVMHEALHNRYTQKSLSLSP
light: DIVMTQSPLSLPVTPGEPASISCRSSQSLVHSNRNTYLHWYQQKPGQAPRLLIYKVSNRFSGVPDRFSGSGSGTDFTLKISRVEAEDVGVYYCGQGTQVPYTFGQGTKLEIKRTVAAPSVFIFPPSDEQLKSGTASVVCLLNNFYPREAKVQWKVDNALQSGNSQESVTEQDSKDSTYSLSSTLTLSKADYEKHKVYACEVTHQGLSSPVTKSFNRGEC
notes: one-arm antibody

Each binder was assayed against T1, CD3 epsilon homodimer protein (UniProt P07766 23-126) (assay: SPR, CD3 epsilon homodimer on chip, one-arm antibody as analyte;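 further: surface plasmon resonance at 25 °C with CD3 epsilon homodimer amine-coupled to a CM4 sensor chip, antibody injected as analyte, HBS-EP+ as running buffer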).
T1 construct: also called CD3 (CD3 epsilon)
T1 sequence (P07766 23-126): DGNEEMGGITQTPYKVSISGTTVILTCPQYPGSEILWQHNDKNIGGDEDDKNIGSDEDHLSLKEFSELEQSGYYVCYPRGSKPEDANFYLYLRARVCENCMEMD

Question: With B1 as the binder, how does the “KD ratio (KD of CE115HA000/KD of altered form)” value (from here on “KD ratio”) read?
Answer: 1.22

Question: With B2 as the binder, how does the “KD ratio” value read?
Answer: 0.74

Question: For B3, which “KD ratio” value is on record?
Answer: 0.66

Question: How did the “KD ratio” value turn out when B4 was run?
Answer: 0.61
